Data taken from patent publication US20090214565A1 (BAYLOR RESEARCH INSTITUTE, published 2009).

Target: PBMC-flu supernatant
Test: cell-based or functional assay

B1: ACO-1 (antibody, V domains shown)
VH: QVQLQQPGAELVKPGASVKLSCKASGYTFTNYWMHWVKQRPGQGLEWIGEINPSHGRTIYNENFKSKATLTVDKSSITAFMQLSSLTSEDSAVYFCARGGLGPAWFAYWGQGTLVTVSA
VL: QIVLTQSPAIMSASPGEKVTLTCSAGSSVDSSYLYWYQQKPGSSPKLWIYSTSNLASGVPARFSGSGSGTSYSLTISSMEAEDAASYFCHQWSSYPFTFGSGTKLEIKR
notes: also called ACO-1 monoclonal antibody; hybridoma ATCC PTA-6557
Work on B1 yielded a neutralization of PBMC-flu, RG bioassay of over 50%.
